The source of these data is publication PMC2804849.

One experiment deals with SCF (Homo sapiens) (UniProt Q13616). The conditions noted are these: cited from earlier work.
In experiment [1] the target is Nedd8-conjugated RC^CFP (human) (UniProt P62877). Nature of the experiment: FRET or BRET.
Experiment [2] deals with Rbx1-Cul1-CFP complex (RC^CFP) (human) (UniProt P62877). Nature of the experiment: FRET or BRET. In general terms: Bioluminescence resonance energy transfer reports proximity on the nanometre scale.
The target in experiment [3] is SCF holoenzyme (FRET experiment of Figure S2c) (human) (UniProt P62877). The experiment can be described thus: FRET or BRET.

Cdc34, sequence (P49427 whole entry): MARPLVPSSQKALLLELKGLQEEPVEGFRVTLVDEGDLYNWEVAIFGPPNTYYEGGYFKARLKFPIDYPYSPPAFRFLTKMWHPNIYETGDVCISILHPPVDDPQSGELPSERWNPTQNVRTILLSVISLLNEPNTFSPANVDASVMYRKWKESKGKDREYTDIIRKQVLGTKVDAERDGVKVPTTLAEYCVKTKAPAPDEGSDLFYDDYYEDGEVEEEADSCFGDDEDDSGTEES

On to Cdc34 (from UniProt P49427), for which the Kd with SCF (Homo sapiens) was 0.02 µM.

Turning to “human Cdc34 charged with ubiquitin (Cdc34~Ub) (from UniProt Q712K3 1-238; P0CG48 1-76) (complex)”, in experiment [1], the fold change of the kinetic parameters against uncharged Cdc34 is 2 fold.

On to “human Cdc34, WT, labelled with Lumio Green at the C-terminus (from UniProt Q712K3 1-238) (enzyme)”, for which, in experiment [2], the Kd turned out to be 0.074 µM, the dissociation rate constant (koff) came out at 35 s⁻¹ and the on-rate (kon) came to 4.7e+08 M⁻¹ s⁻¹. Further, the fold change of koff against RC^CFP heterodimer in experiment [3] was below 2 fold.

By Kd is commonly meant the equilibrium constant for the complex coming apart. The term koff denotes the first-order rate constant of dissociation. As usually defined, the kon is the second-order rate constant of association. A lower kon goes with slower complex formation.
